We go through 1 substance from patent US20100129806A1.

The target of experiment [1] is myc-IP6K2 E138-9A mutant (glutamates 138 and 139 mutated) (human) (UniProt Q9UHH9). Briefly: cell-based or functional assay.
Experiment [2] addresses myc-IP6K2 R133A mutant (human) (UniProt Q9UHH9). In words: cell-based or functional assay.

Sequence of myc-IP6K2 R133A mutant (human) (Q9UHH9 whole entry R133A): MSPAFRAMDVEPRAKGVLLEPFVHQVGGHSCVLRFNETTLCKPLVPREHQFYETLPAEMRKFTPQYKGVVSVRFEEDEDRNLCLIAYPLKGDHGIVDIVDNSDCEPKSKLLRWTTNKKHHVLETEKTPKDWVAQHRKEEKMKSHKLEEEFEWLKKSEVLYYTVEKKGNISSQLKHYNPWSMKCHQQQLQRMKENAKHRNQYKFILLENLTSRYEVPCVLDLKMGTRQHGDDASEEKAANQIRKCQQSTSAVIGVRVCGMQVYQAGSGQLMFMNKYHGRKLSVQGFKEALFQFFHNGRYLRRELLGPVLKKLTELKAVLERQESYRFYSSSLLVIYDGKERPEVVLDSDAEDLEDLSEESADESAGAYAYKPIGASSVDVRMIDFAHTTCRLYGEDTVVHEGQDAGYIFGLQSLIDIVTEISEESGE
Sequence of myc-IP6K2 E138-9A mutant (glutamates 138 and 139 mutated) (human) (Q9UHH9 other isoform, or with tags, fused parts or gaps mutant): as the sequence (Q9UHH9 whole entry R133A) above, with A133R, E138A, E139A counted along it

Regarding “endogenous HSP90 of human cells (HEK 293, HeLa), also used purified from HeLa cells (from UniProt P07900 2-732)”, in experiment [1], the IP6K2 enzyme activity in vivo (fold of IP6K2wt) is 2 and the cell death of transfected HeLa cells (fold of wild type IP6K2) was 5. For the same substance, in experiment [2], the IP6K2 enzyme activity in vivo (fold of IP6K2wt) is 2 and the cell death of transfected HeLa cells (fold of wild type IP6K2) worked out at 5.
